Test results from patent US20260193370A1 (SUZHOU SUNCADIA BIOPHARMACEUTICALS, published 2026).

Assays:
[1] = target: T1, human NGF protein (Sino biological, 11050-HNAC) (human, UniProt P01138 122-241); test: cell-based or functional assay
[2] = target: T1, human NGF protein (Sino biological, …); test: cell-based or functional assay; remark: listed apart in the source

T1 sequence (P01138 122-241 limits assumed): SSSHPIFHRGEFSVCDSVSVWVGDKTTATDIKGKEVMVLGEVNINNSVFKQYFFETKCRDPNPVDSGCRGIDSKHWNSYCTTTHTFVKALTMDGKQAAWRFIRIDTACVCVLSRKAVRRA

B1: Tanezumab (antibody, human IgG2, kappa, V domains shown)
VH: QVQLQESGPGLVKPSETLSLTCTVSGFSLIGYDLNWIRQPPGKGLEWIGIIWGDGTTDYNSAVKSRVTISKDTSKNQFSLKLSSVTAADTAVYYCARGGYWYATSYYFDYWGQGTLVTVSS
VL: DIQMTQSPSSLSASVGDRVTITCRASQSISNNLNWYQQKPGKAPKLLIYYTSRFHSGVPSRFSGSGSGTDFTFTISSLQPEDIATYYCQQEHTLPYTFGQGTKLEIKR
TF-1 cell proliferation-inhibiting activity, fold relative to bispecific antibody 1 [1]: ~4.2 fold | TF-1 cell proliferation-inhibiting activity, IC50 (TF-1 cells with human NGF, Cell-titer Glo) [2]: 0.759 nM
